In US20030108549A1 (GENETICS INSTITUTE, published 2003):
Each block holds one binder with its values, some of them ahead of it.

Biological target: T1, human MU-1 Ig fusion protein (human, UniProt Q9HBE5 20-235)
T1 construct: also called MUFc; human Ig fusion protein; not shown: Ig portion
Experiment: Biacore; MU-1 Ig fusion immobilized on chip
Procedure: Both human and murine Ig fusion proteins were constructed and immobilized on Biacore chips in an effort to identify the ligand for MU-1. A variety of cell culture conditioned media as well as a panel of known cytokines were evaluated for binding to MU-1. Some cytokines were also tested in combination with other receptor chains in the family to consider the possibility that MU-1 may require a second receptor chain for ligand binding. The following cytokines were tested and found to be negative for MU-1 binding: mIL-2, hIL-2, hIL-i5, mIL-7, TSLP, TSLP+IL7, TSLP+IL7R, TSLP+IL7g, TSLP+IL-2, TSLP+1L2+IL2Rbeta, IL2Rbeta, IL2Rgamma, IL7R, IL2+2Rbeta, IL2+2Rgamma, IL1 5+IL2Rbeta, 1L15+2Rgamma, 1IL7+2Rgamma, IL2+IL7R, IL1 5+IL7R, IL7+IL7R. Known receptors have been immobilized as well and tested for MUFc binding with negative results. IL-IS will bind to IL2Rb but not IL2Rg or MUFc.

T1 sequence (Q9HBE5 20-235): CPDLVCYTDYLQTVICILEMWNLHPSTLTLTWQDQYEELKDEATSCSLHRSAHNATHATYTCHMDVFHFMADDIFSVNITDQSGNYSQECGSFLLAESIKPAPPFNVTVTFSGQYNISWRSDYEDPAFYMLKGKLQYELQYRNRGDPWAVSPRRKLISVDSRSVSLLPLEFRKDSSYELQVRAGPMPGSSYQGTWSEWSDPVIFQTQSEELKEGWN

- binding result: no binding
B1: mIL-2 (ligand, mouse, UniProt P04351 21-169, looked up)
chain: APTSSSTSSSTAEAQQQQQQQQQQQQHLEQLLMDLQELLSRMENYRNLKLPRMLTFKFYLPKQATELKDLQCLEDELGPLRHVLDLTQSKSFQLEDAENFISNIRVTVVKLKGSDNTFECQFDDESATVVDFLRRWIAFCQSIISTSPQ

- binding result: no binding
B2: mIL-7 (ligand, mouse, UniProt P10168 26-154, looked up)
chain: ECHIKDKEGKAYESVLMISIDELDKMTGTDSNCPNNEPNFFRKHVCDDTKEAAFLNRAARKLKQFLKMNISEEFNVHLLTVSQGTQTLVNCTSKEEKNVKEQKKNDACFLKRLLREIKTCWNKILKGSI
